{"source": "patent US11884740", "about": "(TG THERAPEUTICS, dated 2024)", "assay_in_all_cases": "cell-based or functional assay", "key": {"[1]": {"target": "T1, FcγIIIA Receptor on the effector cells (human, UniProt P08637 17-254)", "T1 sequence (P08637 17-254)": "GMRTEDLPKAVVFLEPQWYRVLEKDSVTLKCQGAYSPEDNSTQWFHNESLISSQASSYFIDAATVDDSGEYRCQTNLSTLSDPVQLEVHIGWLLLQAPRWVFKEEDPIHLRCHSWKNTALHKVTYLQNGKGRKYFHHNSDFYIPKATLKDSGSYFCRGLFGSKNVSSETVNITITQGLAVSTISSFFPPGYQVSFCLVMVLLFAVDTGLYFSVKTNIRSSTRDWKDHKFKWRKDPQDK"}, "[2]": {"target": "T1, FcγIIIA Receptor on the effector cells", "remark": "listed apart in the source"}, "[3]": {"target": "C1q Receptor in the complement system (rabbit serum as the source of complement) (rabbit)"}}, "data": [{"binder": "TG-1101 (TG Therapeutics, Inc.) (antibody, human IgG1, kappa) heavy: not shown light: QIVLSQSPAILSASPGEKVTMTCRASSSVSYMHWYQQKPGSSPKPWIYATSNLASGVPARFSGSGSGTSYSFTISRVEAEDAATYYCQQWTFNPPTFGGGTRLEIKRTVAAPSVFIFPPSDEQLKSGTASVVCLLNNFYPREAKVQWKVDNALQSGNSQESVTEQDSKDSTYSLSSTLTLSKADYEKHKVYACEVTHQGLSSPVTKSFNRGEC", "values": [{"measurement": "EC50 (ADCC, Raji targets, KILR CD16a effector cells)", "setting": "[1]", "value": 0.00242, "unit": "ng/mL"}, {"measurement": "EC50 of ADCC assay Using Primary NK Cells (Raji targets, LDH release)", "setting": "[2]", "value": 49000, "unit": "ng/mL"}, {"measurement": "EC50 (CDC, Jeko-1 cells, rabbit complement)", "setting": "[3]", "value": 670, "unit": "ng/mL"}]}]}
